Assay [1] addresses human VEGF-A165 (human). Put plainly: fluorescence correlation spectroscopy; 1-5 nM ATTO 647N-labelled growth factor with 0.1 nM to 20 μM unlabelled CD44 ectodomain; at least 3 h at room temperature; PBS with 0.05% Tween-20; 20°C; diffusion times fitted with a 1:1 binding model.
For assay [2], the target named is human VEGF-A165 (human). Put plainly: fluorescence correlation spectroscopy; as the FCS series, but VEGF165 labelled with NT 647 (Table 1).
In assay [3] the target is human VEGF-A165 (human). Kind of assay: MST; 10 nM NT-647-labelled HGF or VEGF165 with serial dilutions of the unlabelled partner; 22°C, PBS plus 1% BSA; Monolith NT.115.

Regarding “rat CD44v6 ectodomain, hexahistidine-tagged (from UniProt P26051 22-410) (domain or fragment)”, the Kd came to 0.065 µM in assay [1], 0.2 µM in assay [2] and 0.051 µM in assay [3].

Usually Kd stands for the equilibrium constant for the complex coming apart.

Source of the values: paper PMC4721543.
